Starred links: 1 amine or outer side, 2 acyl side, 3 side chain; linkers in the order of their positions; H or OH if unused. Non-standard residues stand in square brackets, D forms with d. No end group written: not given here. *: point of attachment. Trp(7-F) = N[C@@H](Cc1c[nH]c2c(F)cccc12)C(=O)O; Trp(7-Me) = Cc1cccc2c(C[C@H](N)C(=O)O)c[nH]c12; C20 diacid = O=C(O)CCCCCCCCCCCCCCCCCCC(=O)*; d(γGlu) = O=C(O)[C@@H](CCC(=O)[*:2])N[*:1]; C18 diacid = O=C(O)CCCCCCCCCCCCCCCCC(=O)*; γGlu = O=C(O)[C@H](CCC(=O)[*:2])N[*:1]; Cha = N[C@@H](CC1CCCCC1)C(=O)O; Nle = CCCC[C@H](N)C(=O)O; AEEA = NCCOCCOCC(=O)O; Sar = CNCC(=O)O
B1: GRP-10 (human GRP18-27) (peptide)
peptide: GNHWAVGHLM-NH2
B2: Peptide 9 (peptide)
peptide: {C18 diacid}-[d(γGlu)][AEEA][AEEA]GNHWAV[dA]HL[Nle]-NH2
SMILES: CCCC[C@H](NC(=O)[C@H](CC(C)C)NC(=O)[C@H](Cc1c[nH]cn1)NC(=O)[C@@H](C)NC(=O)[C@@H](NC(=O)[C@H](C)NC(=O)[C@H](Cc1c[nH]c2ccccc12)NC(=O)[C@H](Cc1c[nH]cn1)NC(=O)[C@H](CC(N)=O)NC(=O)CNC(=O)COCCOCCNC(=O)COCCOCCNC(=O)CC[C@@H](NC(=O)CCCCCCCCCCCCCCCCC(=O)O)C(=O)O)C(C)C)C(N)=O
B3: Peptide 119 (peptide)
peptide: {C18 diacid}-[γGlu][AEEA][AEEA]GNHWAV[dA]HL[Cha]-NH2
SMILES: CC(C)C[C@H](NC(=O)[C@H](Cc1c[nH]cn1)NC(=O)[C@@H](C)NC(=O)[C@@H](NC(=O)[C@H](C)NC(=O)[C@H](Cc1c[nH]c2ccccc12)NC(=O)[C@H](Cc1c[nH]cn1)NC(=O)[C@H](CC(N)=O)NC(=O)CNC(=O)COCCOCCNC(=O)COCCOCCNC(=O)CC[C@H](NC(=O)CCCCCCCCCCCCCCCCC(=O)O)C(=O)O)C(C)C)C(=O)N[C@@H](CC1CCCCC1)C(N)=O
B4: Peptide 120 (peptide)
peptide: {C18 diacid}-[γGlu][AEEA][AEEA]GAHWAV[dA]HL[Cha]-NH2
SMILES: CC(C)C[C@H](NC(=O)[C@H](Cc1c[nH]cn1)NC(=O)[C@@H](C)NC(=O)[C@@H](NC(=O)[C@H](C)NC(=O)[C@H](Cc1c[nH]c2ccccc12)NC(=O)[C@H](Cc1c[nH]cn1)NC(=O)[C@H](C)NC(=O)CNC(=O)COCCOCCNC(=O)COCCOCCNC(=O)CC[C@H](NC(=O)CCCCCCCCCCCCCCCCC(=O)O)C(=O)O)C(C)C)C(=O)N[C@@H](CC1CCCCC1)C(N)=O
B5: Peptide 121 (peptide)
peptide: {C18 diacid}-[γGlu][AEEA][AEEA][AEEA][AEEA]GAH[Trp(7-F)]AV[dA]HL[Nle][Sar]-NH2
SMILES: CCCC[C@H](NC(=O)[C@H](CC(C)C)NC(=O)[C@H](Cc1c[nH]cn1)NC(=O)[C@@H](C)NC(=O)[C@@H](NC(=O)[C@H](C)NC(=O)[C@H](Cc1c[nH]c2c(F)cccc12)NC(=O)[C@H](Cc1c[nH]cn1)NC(=O)[C@H](C)NC(=O)CNC(=O)COCCOCCNC(=O)COCCOCCNC(=O)COCCOCCNC(=O)COCCOCCNC(=O)CC[C@H](NC(=O)CCCCCCCCCCCCCCCCC(=O)O)C(=O)O)C(C)C)C(=O)N(C)CC(N)=O
B6: Peptide 122 (peptide)
peptide: {C20 diacid}-[γGlu][AEEA][AEEA][AEEA][AEEA]GRH[Trp(7-Me)]AV[dA]HL[Nle]-NH2
SMILES: CCCC[C@H](NC(=O)[C@H](CC(C)C)NC(=O)[C@H](Cc1c[nH]cn1)NC(=O)[C@@H](C)NC(=O)[C@@H](NC(=O)[C@H](C)NC(=O)[C@H](Cc1c[nH]c2c(C)cccc12)NC(=O)[C@H](Cc1c[nH]cn1)NC(=O)[C@H](CCCNC(=N)N)NC(=O)CNC(=O)COCCOCCNC(=O)COCCOCCNC(=O)COCCOCCNC(=O)COCCOCCNC(=O)CC[C@H](NC(=O)CCCCCCCCCCCCCCCCCCC(=O)O)C(=O)O)C(C)C)C(N)=O
B7: Peptide 123 (peptide)
peptide: {C20 diacid}-[γGlu][AEEA][AEEA]GNH[Trp(7-Me)]AV[dA]HL[Nle][Sar]-NH2
SMILES: CCCC[C@H](NC(=O)[C@H](CC(C)C)NC(=O)[C@H](Cc1c[nH]cn1)NC(=O)[C@@H](C)NC(=O)[C@@H](NC(=O)[C@H](C)NC(=O)[C@H](Cc1c[nH]c2c(C)cccc12)NC(=O)[C@H](Cc1c[nH]cn1)NC(=O)[C@H](CC(N)=O)NC(=O)CNC(=O)COCCOCCNC(=O)COCCOCCNC(=O)CC[C@H](NC(=O)CCCCCCCCCCCCCCCCCCC(=O)O)C(=O)O)C(C)C)C(=O)N(C)CC(N)=O

These binders were tested against human GRP receptor (human, UniProt P30550 1-384) (assay: cell-based or functional assay).
human GRP receptor, sequence (P30550 whole entry): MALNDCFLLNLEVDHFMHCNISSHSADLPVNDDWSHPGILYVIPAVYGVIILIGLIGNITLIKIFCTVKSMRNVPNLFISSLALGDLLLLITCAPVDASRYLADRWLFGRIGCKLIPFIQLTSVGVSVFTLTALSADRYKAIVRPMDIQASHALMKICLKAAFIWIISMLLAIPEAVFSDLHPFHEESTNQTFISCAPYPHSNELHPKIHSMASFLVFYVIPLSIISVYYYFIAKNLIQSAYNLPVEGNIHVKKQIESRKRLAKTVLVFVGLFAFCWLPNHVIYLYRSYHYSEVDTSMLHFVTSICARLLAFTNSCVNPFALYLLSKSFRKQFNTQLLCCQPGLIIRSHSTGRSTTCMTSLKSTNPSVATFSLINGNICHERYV

Row | Binder | hIP1 GRPR EC50
1 | B1 | 15 nM
2 | B2 | 9.4 nM
3 | B3 | 660 nM
4 | B4 | 443 nM
5 | B5 | 356 nM
6 | B6 | 3.88 nM
7 | B7 | 60.1 nM
